T1: full-length human SIRPγ EN→DD on Expi-CHO cells (human, UniProt Q9P1W8 29-387)
T1 construct: the entry already carries the change (PENV to PDDV)
T1 chain: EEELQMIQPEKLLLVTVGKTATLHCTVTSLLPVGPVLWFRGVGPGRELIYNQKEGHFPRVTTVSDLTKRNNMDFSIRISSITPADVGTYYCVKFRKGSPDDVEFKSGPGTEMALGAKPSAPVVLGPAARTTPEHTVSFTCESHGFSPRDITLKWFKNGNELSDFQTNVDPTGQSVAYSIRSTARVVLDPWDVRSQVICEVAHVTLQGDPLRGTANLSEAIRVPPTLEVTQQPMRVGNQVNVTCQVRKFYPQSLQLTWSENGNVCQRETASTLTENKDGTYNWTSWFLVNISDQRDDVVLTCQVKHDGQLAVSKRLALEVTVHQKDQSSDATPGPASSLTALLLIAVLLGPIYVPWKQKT


Tests used:
[1] = target: T2, full-length human SIRPαV1 (NP_542970.1) on cells (human, UniProt P78324 31-504); experiment: flow cytometry, CD14+ monocytes V1V1
T2 construct: one molecule for CHO-K1 and Expi-CHO transfectants (NP_542970.1) and for endogenous V1 on U-937 cells and on CD14+ monocytes of V1/V1 donors; also called CHO-hSIRPαV1; αV1 WT
Description: (§1) Antibody binding to primary human cells expressing SIRPα is evaluated by flow cytometry. Human peripheral blood mononuclear cells (PBMCs) from donors genotyped as homozygous for the SIRPα V1 allele, V2 allele, or heterozygous for both alleles are blocked with donkey IgG and incubated on ice with increasing concentrations of antibody for 60 minutes, washed and stained with AF647-conjugated donkey F(ab′)₂ anti-human IgG secondary reagent. […] Cells are washed, fixed, and analyzed by flow cytometry. Median fluorescent intensity of the CD14+ population was determined and used as a measure of antibody binding.

[2] = target: T3, full-length human SIRPγ (NP_061026.2) on cells (human, UniProt Q9P1W8 29-387); experiment: flow cytometry, primary human CD3+ T cells (endogenous SIRPγ)
T3 construct: also called CHO-hSIRPγ; γ WT
Description: Antibody binding to primary human T cells expressing endogenous SIRPγ is evaluated by flow cytometry. Human peripheral blood mononuclear cells (PBMCs) are blocked with donkey IgG and incubated on ice with increasing concentrations of antibody for 60 minutes, washed and stained with AF647-conjugated donkey F(ab′)₂ anti-human IgG secondary reagent. […] Cells are washed, fixed, and analyzed by flow cytometry. Median fluorescent intensity of CD3+ gated population is determined and used as a measure of antibody binding.

[3] = target: T4, full-length human SIRPαV2 (CAA71403.1) on cells (human, UniProt P78324 31-504); experiment: flow cytometry, CD14+ monocytes V2V2
T4 construct: one molecule for CHO-K1 and Expi-CHO transfectants (CAA71403.1) and for endogenous V2 on THP-1 cells and on CD14+ monocytes of V2/V2 donors; also called CHO-hSIRPαV2; αV2 WT
Description: as §1

[4] = target: T4, full-length human SIRPαV2 (CAA71403.1) …; experiment: flow cytometry, competition with CD47 tetramer, monocytes V2V2
Description: Cells are washed, fixed, and analyzed by flow cytometry. Median fluorescent intensity of CD14+gated population is determined and used as a measure of CD47 binding.

[5] = target: ED-tagged human SIRPα V1 receptor on Jurkat signaling reporter cells (human, UniProt P78324 31-504); experiment: cell-based or functional assay
[6] = target: ED-tagged human SIRPα V2 receptor on Jurkat signaling reporter cells (human, UniProt P78324 31-504); experiment: cell-based or functional assay
[7] = target: T5, full-length human SIRPβL (NP_001129316.1) on cells (human, UniProt Q5TFQ8 30-398); experiment: flow cytometry, U937 SIRPα-KO transfectants
T5 construct: one molecule for U937 SIRPα-KO transfectants (NP_001129316.1) and Expi-CHO transfectants (Q5TFQ8); also called SIRPβ1v3; βL WT
Description: (§2) Antibody binding to cells expressing full-length human SIRPβ1 (NP_006056.2) and SIRPβL (NP_001129316.1) is evaluated by flow cytometry. SIRPβ1- or SIRPβL-expressing U937^{SIRPα KO} cells are blocked with donkey IgG and incubated on ice with increasing concentrations of antibodies for 60 minutes, washed and stained with AF647-conjugated donkey F(ab′)₂ anti-human IgG secondary reagent. Cells are washed, fixed, and analyzed by flow cytometry. Median fluorescent intensity is determined and used as a measure of antibody binding.

[8] = target: T5, full-length human SIRPβL …; experiment: flow cytometry, U937 SIRPα-KO cells expressing full-length human SIRPβL
Description: as §2

[9] = target: T6, full-length human SIRPβ1 (NP_006056.2) on cells (human, UniProt O00241 30-398); experiment: flow cytometry, U937 SIRPα-KO transfectants
T6 construct: also called β1 WT
Description: as §2

[10] = target: T3, full-length human SIRPγ (NP_061026.2) …; experiment: flow cytometry, Expi-CHO cells expressing full-length wild-type human SIRPγ
Description: […] These cells are blocked with donkey IgG and incubated on ice with increasing concentrations of antibodies for 60 minutes, washed and stained with AF647-conjugated donkey F(ab′)₂ anti-human IgG antibodies. Stained cells are washed, fixed, and analyzed by flow cytometry. Median fluorescent intensity is determined and used as a measure of antibody binding.

[11] = target: T7, full-length human SIRPβ1 D→H on Expi-CHO cells (human, UniProt O00241 30-398); experiment: flow cytometry, Expi-CHO cells expressing full-length human SIRPβ1 D→H
T7 construct: the entry already carries the change (PDDV to PDHV)
Description: (§3) These cells are blocked with donkey IgG and incubated on ice with increasing concentrations of antibodies for 60 minutes, washed and stained with AF647-conjugated donkey F(ab′)₂ anti-human IgG antibodies. Stained cells are washed, fixed, and analyzed by flow cytometry. Median fluorescent intensity is determined and used as a measure of antibody binding.

[12] = target: T8, full-length human SIRPβL H→D on Expi-CHO cells (human, UniProt Q5TFQ8 30-398); experiment: flow cytometry, Expi-CHO cells
T8 construct: the entry already carries the change (PDHV to PDDV); also called βL WT H→D
Description: as §3, with “Expi-CHO parental cells are transduced with lentiviruses containing either full-length wild-type human SIRPβL (Q5TFQ8) or full-length human SIRPβL with a single amino acid point mutation (Table 62) and sorted to achieve matching expression levels. These” for “These”
(§4) A single amino acid substitution (H→D) introduced within the loop region maintained, strengthened, or facilitated antibody binding to these cells (FIG. 34B, Table 63).

[13] = target: T5, full-length human SIRPβL …; experiment: flow cytometry, Expi-CHO cells expressing full-length wild-type human SIRPβL
Description: as §3, with “Expi-CHO parental cells are transduced with lentiviruses containing either full-length wild-type human SIRPβL (Q5TFQ8) or full-length human SIRPβL with a single amino acid point mutation (Table 62) and sorted to achieve matching expression levels. These” for “These”
as §4

[14] = target: T9, full-length human SIRPγ E→D on Expi-CHO cells (human, UniProt Q9P1W8 29-387); experiment: flow cytometry, Expi-CHO cells expressing full-length human SIRPγ E→D
T9 construct: the entry already carries the change (PENV to PDNV)
Description: as §3, with “Expi-CHO parental cells are transduced with lentiviruses containing either full-length wild-type human SIRPγ ([…]) or full-length human SIRPγ with amino acid point mutations (Table 64) and sorted to achieve matching expression levels. These” for “These”

[15] = target: T10, full-length human SIRPγ N→D on Expi-CHO cells (human, UniProt Q9P1W8 29-387); experiment: flow cytometry, Expi-CHO cells
T10 construct: the entry already carries the change (PENV to PEDV)
Description: as §3, with “Expi-CHO parental cells are transduced with lentiviruses containing either full-length wild-type human SIRPγ ([…]) or full-length human SIRPγ with amino acid point mutations (Table 64) and sorted to achieve matching expression levels. These” for “These”

[16] = target: T1, full-length human SIRPγ EN→DD on …; experiment: flow cytometry, Expi-CHO cells
Description: as §3, with “Expi-CHO parental cells are transduced with lentiviruses containing either full-length wild-type human SIRPγ ([…]) or full-length human SIRPγ with amino acid point mutations (Table 64) and sorted to achieve matching expression levels. These” for “These”

[17] = target: T6, full-length human SIRPβ1 (NP_006056.2) …; experiment: flow cytometry, Expi-CHO cells
Description: as §3

Row | EC50 [1] [nM] | binding result [2] | EC50 [3] [nM] | IC50 [4] [nM] | Blockade of Cellular CD47-Mediated SIRPα Signaling; IC50 [5] [nM] | Blockade of Cellular CD47-Mediated SIRPα Signaling; IC50 [6] [nM] | EC50 [7] [nM] | binding result [8] | EC50 [9] [nM] | binding result [10] | binding result [11] | EC50 [12] [nM] | binding result [13] | binding result [14] | EC50 [15] [nM] | EC50 [16] [nM] | EC50 [17] [nM] | Binder
1 | 0.3 | no binding (tested: about 67 nM) | 0.4 | 0.22 | 0.04 | 0.03 | 0.3 |  |  |  |  |  |  |  |  |  |  | Antibody G (antibody, human IgG4 S228P, kappa) heavy: not shown light: DIVMTQSPLSLPVTPGEPASISCKSSQSLLYSNGYNYLDWYLQRPGQSPQLLIYLGSNRASGVPDRFSGSGSGTDFTLKISRVEAEDVGVFYCMQALQTPLTFGGGTKVEIKRTVAAPSVFIFPPSDEQLKSGTASVVCLLNNFYPREAKVQWKVDNALQSGNSQESVTEQDSKDSTYSLSSTLTLSKADYEKHKVYACEVTHQGLSSPVTKSFNRGEC
2 |  | no binding (tested: about 67 nM) |  |  | 0.04 | 0.03 |  | no binding (tested: about 200 nM) | 0.2 |  |  |  |  |  |  |  |  | Antibody F (antibody, human IgG4 S228P, kappa) heavy: not shown light: DIQMTQSPSSLSASVGDRVTITCRASQDINNYLAWFQQKPGKAPKSLIYTASSLHSGVPSKFSGSGSGTDFTLTISSLQPEDFATYYCQQYVSYPYTFGQGTKLEIKRTVAAPSVFIFPPSDEQLKSGTASVVCLLNNFYPREAKVQWKVDNALQSGNSQESVTEQDSKDSTYSLSSTLTLSKADYEKHKVYACEVTHQGLSSPVTKSFNRGEC
3 |  |  |  |  | 0.04 | 0.05 |  |  | 0.2 | no binding (tested: about 67 nM) | no binding (tested: about 67 nM) | 0.5 | no binding (tested: about 67 nM) | no binding (tested: about 67 nM) | 0.5 | 0.7 | 1.5 | Antibody A4 (antibody, human IgG1, kappa, L234A L235A, V domains shown) VH: EVQLVESGGGLVQPGGSLRLSCAASGFTLSSYDMHWVRQAPGKGLEWVSAIGTAGDTYYTGSVKGRFTISRENAKNSLYLQMNSLRAADTAVYYCVRGGVWDDAFDIWGQGTMVTVSS VL: DIQMTQSPSSLSASVGDRVTITCRASQGINNYAAWFQQKPGKAPKSLIYTASSLHSGVPSKFSGSGSGTDFTLTISSLQPEDFATYYCQQYVSYPYTFGQGTKLEIKR

Reference: US20230012273A1 (Boehringer Ingelheim, published 2023)
